From patent US6906179 (GENERAL HOSPITAL, dated 2005)

T1: p115HEF1 (full length HEF1, 115 kD form) (human, UniProt Q14511 1-834, form derived from differential phosphorylation; sites not given)
T1 construct: Transfected into 293 cells; tag not described
T1 sequence (looked up): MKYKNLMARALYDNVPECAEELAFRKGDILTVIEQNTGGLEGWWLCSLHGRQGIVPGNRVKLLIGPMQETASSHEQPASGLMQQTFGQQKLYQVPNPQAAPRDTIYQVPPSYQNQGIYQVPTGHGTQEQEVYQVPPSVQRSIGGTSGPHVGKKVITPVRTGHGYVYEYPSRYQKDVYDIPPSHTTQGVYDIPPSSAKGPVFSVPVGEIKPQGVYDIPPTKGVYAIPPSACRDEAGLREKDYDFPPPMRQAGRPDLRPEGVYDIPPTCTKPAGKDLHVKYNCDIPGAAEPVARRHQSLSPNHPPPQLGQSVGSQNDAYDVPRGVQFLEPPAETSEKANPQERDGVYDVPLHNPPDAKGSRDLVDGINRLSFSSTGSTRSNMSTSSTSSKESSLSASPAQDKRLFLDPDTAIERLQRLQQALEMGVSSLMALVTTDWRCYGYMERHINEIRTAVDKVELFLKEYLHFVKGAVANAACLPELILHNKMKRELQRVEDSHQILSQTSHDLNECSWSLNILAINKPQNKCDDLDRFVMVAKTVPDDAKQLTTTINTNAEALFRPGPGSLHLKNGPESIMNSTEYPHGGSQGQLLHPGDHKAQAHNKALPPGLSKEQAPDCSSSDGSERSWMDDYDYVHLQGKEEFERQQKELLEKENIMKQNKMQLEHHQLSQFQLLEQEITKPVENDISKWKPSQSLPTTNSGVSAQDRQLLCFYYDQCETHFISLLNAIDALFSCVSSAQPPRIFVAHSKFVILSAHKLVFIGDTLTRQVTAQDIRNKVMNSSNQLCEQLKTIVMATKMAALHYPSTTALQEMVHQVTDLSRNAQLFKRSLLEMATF

T2: p105HEF1 (full length HEF1, 105 kD form) (human, UniProt Q14511 1-834, form derived from differential phosphorylation; sites not given)
T2 construct: Transfected into 293 cells; tag not described
T2 sequence (looked up): T1 sequence (looked up)

T3: HEF1 M2 (aa 651-834) (human, UniProt Q14511 651-834)
T3 construct: range 651-834
T3 sequence (looked up): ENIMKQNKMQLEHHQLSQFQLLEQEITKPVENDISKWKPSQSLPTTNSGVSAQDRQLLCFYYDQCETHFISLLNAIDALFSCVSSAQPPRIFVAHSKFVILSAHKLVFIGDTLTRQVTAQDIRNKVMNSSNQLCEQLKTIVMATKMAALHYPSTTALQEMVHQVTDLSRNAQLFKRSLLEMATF

B1: Clone S1+12 (other)
chain: EFGTRRMMEGLDDGPDFLSEEDRGLKAINVDLQSDAALQVDISDALSERDKVKFTVHTKSSLPNFKQNEFSVVRQHEEFIWLHDSFVENEDYAGYIIPPAPPRPDFDASREKLQKLGEGEGSMTKEEFTKMKQELEAEYLAIFKKTVAMHEVFLCRVAAHPILRRDLNFHVFLEYNQDLSVRGKKKKKNSRSFGLLRQ
notes: also called sorting nexin-like protein
B2: Smad1 (other, UniProt Q15797 1-465, looked up)
chain: MNVTSLFSFTSPAVKRLLGWKQGDEEEKWAEKAVDALVKKLKKKKGAMEELEKALSCPGQPSNCVTIPRSLDGRLQVSHRKGLPHVIYCRVWRWPDLQSHHELKPLECCEFPFGSKQKEVCINPYHYKRVESPVLPPVLVPRHSEYNPQHSLLAQFRNLGQNEPHMPLNATFPDSFQQPNSHPFPHSPNSSYPNSPGSSSSTYPHSPTSSDPGSPFQMPADTPPPAYLPPEDPMTQDGSQPMDTNMMAPPLPSEINRGDVQAVAYEEPKHWCSIVYYELNNRVGEAFHASSTSVLVDGFTDPSNNKNRFCLGLLSNVNRNSTIENTRRHIGKGVHLYYVGGEVYAECLSDSSIFVQSRNCNYHHGFHPTTVCKIPSGCSLKIFNNQEFAQLLAQSVNHGFETVYELTKMCTIRMSFVKGWGAEYHRQDVTSTPCWIEIHLHGPLQWLDKVLTQMGSPHNPISSVS
notes: also called Smad1 itself
B3: Smad4 (other, UniProt Q13485 1-552, looked up)
chain: MDNMSITNTPTSNDACLSIVHSLMCHRQGGESETFAKRAIESLVKKLKEKKDELDSLITAITTNGAHPSKCVTIQRTLDGRLQVAGRKGFPHVIYARLWRWPDLHKNELKHVKYCQYAFDLKCDSVCVNPYHYERVVSPGIDLSGLTLQSNAPSSMMVKDEYVHDFEGQPSLSTEGHSIQTIQHPPSNRASTETYSTPALLAPSESNATSTANFPNIPVASTSQPASILGGSHSEGLLQIASGPQPGQQQNGFTGQPATYHHNSTTTWTGSRTAPYTPNLPHHQNGHLQHHPPMPPHPGHYWPVHNELAFQPPISNHPAPEYWCSIAYFEMDVQVGETFKVPSSCPIVTVDGYVDPSGGDRFCLGQLSNVHRTEAIERARLHIGKGVQLECKGEGDVWVRCLSDHAVFVQSYYLDREAGRAPGDAVHKIYPSAYIKVFDLRQCHRQMQQQAATAQAAAAAQAAAVAGNIPGPGSVGGIAPAISLSAAAGIGVDDLRRLCILRMSFVKGWGPDYPRQSIKETPCWIEIHLHRALQLLDEVLHTMPIADPQPLD
notes: also called DPC4
B4: LexA-Smad1 (full length Smad1 fused in frame to the LexA DNA binding domain (1-202) in pEG202) (other)
chain: MKALTARQQEVFDLIRDHISQTGMPPTRAEIAQRLGFRSPNAAEEHLKALARKGVIEIVSGASRGIRLLQEEEEGLPLVGRVAAGEPLLAQQHIEGHYQVDPSLFKPNADFLLRVSGMSMKDIGIMDGDLLAVHKTQDVRNGQVVVARIDDEVTVKRLKKQGNKVELLPENSEFKPIVVDLRQQSFTIEGLAVGVIRNGDWLMNVTSLFSFTSPAVKRLLGWKQGDEEEKWAEKAVDALVKKLKKKKGAMEELEKALSCPGQPSNCVTIPRSLDGRLQVSHRKGLPHVIYCRVWRWPDLQSHHELKPLECCEFPFGSKQKEVCINPYHYKRVESPVLPPVLVPRHSEYNPQHSLLAQFRNLGQNEPHMPLNATFPDSFQQPNSHPFPHSPNSSYPNSPGSSSSTYPHSPTSSDPGSPFQMPADTPPPAYLPPEDPMTQDGSQPMDTNMMAPPLPSEINRGDVQAVAYEEPKHWCSIVYYELNNRVGEAFHASSTSVLVDGFTDPSNNKNRFCLGLLSNVNRNSTIENTRRHIGKGVHLYYVGGEVYAECLSDSSIFVQSRNCNYHHGFHPTTVCKIPSGCSLKIFNNQEFAQLLAQSVNHGFETVYELTKMCTIRMSFVKGWGAEYHRQDVTSTPCWIEIHLHGPLQWLDKVLTQMGSPHNPISSVS
notes: also called Smad1pEG202; full length Smad1 bait
B5: Clone S1+27 (SIP2) (other)
chain: KSSPLLIRMEESLNIVKYTAFLYNDQLIWSGLEQDDMRILYKYLTTSLFPRHIEPELAGRDSPIRAEMPGNLQHYGRFLTGPLNLNDPDAKCRFPKIFVNTDDTYEELHLIVYKAMSAAVCFMIDASVHPTLDFCRRLDSIVGPQLTVLASDICEQFNINKRMSGSEKEPQFKFIYFNHMNLAEKSTVHMRKTPSVSLTSVHPDLMKILGDINSDFTRVDEDEEIIVKAMSDYWVVGKKSDRRELYVILNQKNANLIEVNEVKKLCATQFNNIFFLD
notes: Novel clone from the human fetal brain library; also called Clone Smad1+ (S1+)27
B6: Clone S1+28 (other)
chain: FAVDAKALPQNKPRPLTQEEIAQRRERARQRHAEKLAAAQGQAPLEPTQDGSAIETCPKGDEPRGDEQQVESMTPKPVLQEENNQESFIAFARVFSGVARRGKKIFVLGPKYSPLEFLRRVPLCFSAPPDGLPQVPHMAYCALENLYLLMGRELEYLEEVPPGNVLGIGGLQDFVLKSATLCSLPSCPPFIPLNFEATPIVRVAVEPKHPSEMPQLVKGMKLLNQADPCVQILIQETGEHVLVTAGEVHLQRCLDDLKERFAKIHISVSEPIIPFRETITKPPKVDMVNEEIGKQQKVAVIHQMKEDQSKIPEGIQVDSDGLITITTPNKLATLSVRAMPLPEEVTQILEENSDLIRSMEQLTSSLNEGENTHMIHQKTQEKIWEFKGKLEQHLTGRRWRNIVDQIWSFGPRKCGPNILVNKSEDFQNSVWTGPADKASKEASRYRDLGNSIVSGFQLATLSGPMCEEPLMGVCFVLEKWDLSKFEEQGASDLAKEDRRKMKPVLVEMKTKSYKMAALRPLRRGHHRKENLHSLTAMDLSQDS
notes: Novel clone from the human fetal brain library; also called human homologue of yeast translocation elongation factor
B7: Smad3N (aa 1-144) (other, UniProt P84022 1-144, looked up)
chain: MSSILPFTPPIVKRLLGWKKGEQNGQEEKWCEKAVKSLVKKLKKTGQLDELEKAITTQNVNTKCITIPRSLDGRLQVSHRKGLPHVIYCRLWRWPDLHSHHELRAMELCEFAFNMKKDEVCVNPYHYQRVETPVLPPVLVPRHT
notes: range 1-144; also called N-terminal MH1 domain of Smad3
B8: HEF1 M2/N (aa 651-759) (other, human, UniProt Q14511 651-759, looked up)
chain: ENIMKQNKMQLEHHQLSQFQLLEQEITKPVENDISKWKPSQSLPTTNSGVSAQDRQLLCFYYDQCETHFISLLNAIDALFSCVSSAQPPRIFVAHSKFVILSAHKLVFI
notes: range 651-759
B9: HEF1 M2/M (aa 695-759) (other, human, UniProt Q14511 695-759, looked up)
chain: TTNSGVSAQDRQLLCFYYDQCETHFISLLNAIDALFSCVSSAQPPRIFVAHSKFVILSAHKLVFI
notes: range 695-759
B10: HEF1 M2/C (aa 695-832) (other, human, UniProt Q14511 695-832, looked up)
chain: TTNSGVSAQDRQLLCFYYDQCETHFISLLNAIDALFSCVSSAQPPRIFVAHSKFVILSAHKLVFIGDTLTRQVTAQDIRNKVMNSSNQLCEQLKTIVMATKMAALHYPSTTALQEMVHQVTDLSRNAQLFKRSLLEMA
notes: range 695-832

Legend:
[1] = target: B4; assay: yeast two-hybrid; list of Smad1 interactors
Excerpt: (§1) From the pooled stock of the transformants, ten million cells are screened on U^-H^-W^-L^- galactose plates containing X-gal. Only those that form blue colonies are picked as candidate positives. […] Methods of sequencing employ such enzymes as the Klenow fragment of DNA polymerase I, Sequenase® (US Biochemical Corp, Cleveland, Ohio), Taq polymerase (Perkin Elmer, Norwalk, Conn.), thermostable T7 polymerase (Amersham, Chicago, Ill.), or combinations of recombinant polymerases and proofreading exonucleases such as the ELONGASE Amplification System (Gibco BRL, Gaithersburg, Md.). Preferably, the process is automated with machines such as the Hamilton Micro Lab 2200 (Hamilton, Reno Nev.), Peltier Thermal Cycler (PTC200; MJ Research, Watertown, Mass.) and the ABI 377 DNA sequencers (Perkin Elmer). […] The transformants are first streaked onto a master plate, then replicated onto two testing plates: U^-H^-W^- glucose plates with X-gal; U^-H^-W^- HW galactose/raffinose plates with X-gal.

[2] = target: T4, HsN3 (human, UniProt P28070 1-264, limits assumed); assay: list of HsN3 interactors; method not detailed
T4 construct: also called β subunit of 20S proteasome; untagged HsN3 protein
T4 sequence (P28070 whole entry): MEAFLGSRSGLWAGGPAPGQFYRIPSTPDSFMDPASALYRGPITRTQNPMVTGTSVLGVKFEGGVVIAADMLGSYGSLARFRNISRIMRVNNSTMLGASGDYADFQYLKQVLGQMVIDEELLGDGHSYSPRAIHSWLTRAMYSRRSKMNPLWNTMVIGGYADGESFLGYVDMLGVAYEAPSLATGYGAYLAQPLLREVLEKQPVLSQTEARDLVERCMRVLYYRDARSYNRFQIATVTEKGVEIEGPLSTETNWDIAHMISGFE

[3] = target: T5, Uba 80 (ubiquitin fusion protein), clones S1+36 and S1+38 (human, UniProt P62979 1-156); assay: list of S1+12 interactors; method not detailed
[4] = target: the molecule itself; assay: list of S1+12 interactors; method not detailed
[5] = target: B4; assay: yeast two-hybrid screen, LexA-Smad1 bait
Excerpt: as §1

[6] = target: B4; assay: yeast two-hybrid (data not shown)
[7] = target: T1, p115HEF1 (full length HEF1, 115 kD form); assay: co-immunoprecipitation, transfected 293 cells
[8] = target: T2, p105HEF1 (full length HEF1, 105 kD form); assay: co-immunoprecipitation, transfected 293 cells
[9] = target: T5, Uba 80 (ubiquitin fusion protein), …; assay: yeast two-hybrid screen, LexA-Smad1 bait
Excerpt: as §1

[10] = target: T3, HEF1 M2 (aa 651-834); assay: co-immunoprecipitation, transfected cells
[11] = target: B7; assay: co-immunoprecipitation, transfected cells

B1: binds [1]; binds [2]; binds [3]. B1: binds [4].

B2: binds [5].

B3: binds [6]; no binding [7]; no binding [8].

B4: binds [9].

B5: binds [1].

B6: binds [1].

B7: no binding [10].

B8: no binding [11].

B9: no binding [11].

B10: no binding [11].
